The target of test [1] is GPC3-GST fusion protein. As to the kind of experiment: ELISA, GPC3-GST fusion protein as antigen at 0.5 ug/ml.
For test [2], the target named is GPC3-GST fusion protein. Briefly: ELISA, GPC3-GST fusion protein as antigen at 1 ug/ml.

Chain of GPC3-GST fusion protein (P51654 368-548): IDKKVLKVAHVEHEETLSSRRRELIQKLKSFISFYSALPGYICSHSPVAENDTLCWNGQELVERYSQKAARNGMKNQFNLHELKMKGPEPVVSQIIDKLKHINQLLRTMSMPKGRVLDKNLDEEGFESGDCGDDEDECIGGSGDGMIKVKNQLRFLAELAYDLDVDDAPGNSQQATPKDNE

B1: 4E5 scFv, secreted from yeast as a fusion protein and purified on nickel-HIS beads (scFv, part only; not given: linker and fusion partner, not shown: large carriers)
scFv, part: QVQLQQSGAELVRPGASVKLSCKASGYTFNDYEMHWVKQTPVHGLKWIGALEPKTGDTAYSQKFKGKATLTADKSSSTAYMELRSLTSEDSAVYYCTSCYYYTYSGQGTLVTVSADVVMTQTPLSLPVSLGDQASISCRSSQSLVHSNGNTYLHWYLQKPGQSPKLLIYKVSNRFSGVPDRFSGSGSGTDFTLKISRVEAEDLGVYFCSQNTPVPPKFGSGTKLEIK
For orientation: EC50 means the concentration needed to bring the measured effect to its halfway point. A high value points to a less potent agent. On to B1, for which the EC50 with GPC3-GST fusion protein [1] came to 52 nM; with GPC3-GST fusion protein [2] it was 43.1 nM.

The values above are taken from patent US20170291954A1.
